Data published in the supplement of paper PMC10567573.

B1: TSN (parent)
chain: AFVVYLETETLVTREAVTEILGIE
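Note: lentivirally expressed fusions sorted by FACS into six bins by GFP to DsRed ratio, PSI derived from sequencing read proportions per bin multiplied by bin number.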

Variants of: B1
Assay: protein stability index of a GFP-peptide fusion (GPS, HEK-293T) (PSI 1-6); higher = more stable
Conditions: c terminus: a fixed tail appended
With AFVVYLKTETLVTREAVTEILGIE [E7K] the protein stability index was 2.63.
AFVVYLQTETLVTREAVTEILGIE [E7Q] showed a protein stability index of 3.51.
For AFVVYLTTETLVTREAVTEILGIE [E7T], the protein stability index was 2.4.
Work on AFVVYLHTETLVTREAVTEILGIE [E7H] yielded a protein stability index of 3.41.
In the case of AFVVYLYTETLVTREAVTEILGIE [E7Y], the protein stability index is reported as 2.77.
In the case of AFVVYLLTETLVTREAVTEILGIE [E7L], the protein stability index is reported as 2.42.
AFVVYLITETLVTREAVTEILGIE [E7I] showed a protein stability index of 3.57.
In the case of AFVVYLPTETLVTREAVTEILGIE [E7P], the protein stability index is reported as 2.19.
For AFVVYLNTETLVTREAVTEILGIE [E7N], the protein stability index was 3.66.
Work on AFVVYLWTETLVTREAVTEILGIE [E7W] yielded a protein stability index of 3.69.
AFVVYLSTETLVTREAVTEILGIE [E7S] showed a protein stability index of 1.76.
AFVVYLETETLVTREAVLEILGIE [T18L] showed a protein stability index of 2.24.
Variant AFVVYLETETLVTREAVQEILGIE [T18Q] has a protein stability index of 3.84.
For AFVVYLETETLVTREAVEEILGIE [T18E], the protein stability index was 3.46.
For AFVVYLETETLVTREAVPEILGIE [T18P], the protein stability index was 2.79.
Work on AFVVYLETETLVTREAVAEILGIE [T18A] yielded a protein stability index of 2.74.
Variant AFVVYLETETLVTREAVGEILGIE [T18G] has a protein stability index of 1.49.
Work on AFVVYLETETLVTREAVFEILGIE [T18F] yielded a protein stability index of 2.48.
Variant AFVVYLETETLVTREAVNEILGIE [T18N] has a protein stability index of 4.21.
Work on AFVVYLETETLVTREAVHEILGIE [T18H] yielded a protein stability index of 4.07.
Variant AFVVYLETETLVTAEAVTEILGIE [R14A] has a protein stability index of 3.41.
AFVVYLETETLVTHEAVTEILGIE [R14H] showed a protein stability index of 3.6.
In the case of AFVVYLETETLVTEEAVTEILGIE [R14E], the protein stability index is reported as 1.43.
Work on AFVVYLETETLVTKEAVTEILGIE [R14K] yielded a protein stability index of 4.19.
Variant AFVVYLETETLVTCEAVTEILGIE [R14C] has a protein stability index of 3.25.
AFVVYLETETLVTPEAVTEILGIE [R14P] showed a protein stability index of 2.84.
AFVVYLETETLVTMEAVTEILGIE [R14M] gave a protein stability index of 4.2.
In the case of AFVVYLETETLVTFEAVTEILGIE [R14F], the protein stability index is reported as 2.36.
For AFVVYLETETLVTTEAVTEILGIE [R14T], the protein stability index was 2.48.
AFVVYLETETLVTNEAVTEILGIE [R14N] showed a protein stability index of 4.51.
With AFVVYLETETLVTYEAVTEILGIE [R14Y] the protein stability index was 2.01.
Work on AFVVYLETETLVTDEAVTEILGIE [R14D] yielded a protein stability index of 2.33.
In the case of AFVVYLETETLVTSEAVTEILGIE [R14S], the protein stability index is reported as 1.54.
AFVVYLETETLVTREAVTLILGIE [E19L] showed a protein stability index of 3.65.
AFVVYLETETLVTREAVTIILGIE [E19I] showed a protein stability index of 2.11.
AFVVYLETETLVTREAVTWILGIE [E19W] showed a protein stability index of 2.4.
With AFVVYLETETLVTREAVTQILGIE [E19Q] the protein stability index was 3.48.
In the case of AFVVYLETETLVTREAVTFILGIE [E19F], the protein stability index is reported as 2.17.
For AFVVYLETETLVTREAVTNILGIE [E19N], the protein stability index was 3.7.
Work on AFVVYLETETLVTREAVTVILGIE [E19V] yielded a protein stability index of 3.19.
With AFVVYLETETLVTREAVTSILGIE [E19S] the protein stability index was 1.96.
Variant AFVVYLETETLVTREAVTCILGIE [E19C] has a protein stability index of 3.83.
Variant AFVVYLETETLVTREAVTPILGIE [E19P] has a protein stability index of 2.44.
With AFVVYLETETLVTREAVTKILGIE [E19K] the protein stability index was 3.64.
Variant AFVVYLETETLVTREAVTRILGIE [E19R] has a protein stability index of 3.43.
Work on AFVVYLETETLVTREAVTHILGIE [E19H] yielded a protein stability index of 2.31.
Work on AFVVYLETETRVTREAVTEILGIE [L11R] yielded a protein stability index of 2.65.
For AFVVYLETETTVTREAVTEILGIE [L11T], the protein stability index was 1.64.
Variant AFVVYLETETDVTREAVTEILGIE [L11D] has a protein stability index of 2.34.
AFVVYLETETNVTREAVTEILGIE [L11N] gave a protein stability index of 2.14.
AFVVYLETETPVTREAVTEILGIE [L11P] gave a protein stability index of 1.97.
Work on AFVVYLETETWVTREAVTEILGIE [L11W] yielded a protein stability index of 2.15.
AFVVYLETETMVTREAVTEILGIE [L11M] showed a protein stability index of 3.03.
In the case of AFVVYLETETVVTREAVTEILGIE [L11V], the protein stability index is reported as 2.74.
AFVVYLETETAVTREAVTEILGIE [L11A] gave a protein stability index of 2.69.
Variant AFVVYLETETQVTREAVTEILGIE [L11Q] has a protein stability index of 3.4.
With AFVVYLETETGVTREAVTEILGIE [L11G] the protein stability index was 2.58.
In the case of AFVVYLETETSVTREAVTEILGIE [L11S], the protein stability index is reported as 2.48.
With AFVVYLETETHVTREAVTEILGIE [L11H] the protein stability index was 3.08.
AFVVYLETETEVTREAVTEILGIE [L11E] showed a protein stability index of 1.73.
AFVVYLETETLVTREDVTEILGIE [A16D] showed a protein stability index of 1.97.
In the case of AFVVYLETETLVTREQVTEILGIE [A16Q], the protein stability index is reported as 2.67.
AFVVYLETETLVTREEVTEILGIE [A16E] gave a protein stability index of 2.77.
For AFVVYLETETLVTREWVTEILGIE [A16W], the protein stability index was 3.37.
Variant AFVVYLETETLVTRECVTEILGIE [A16C] has a protein stability index of 3.53.
AFVVYLETETLVTRESVTEILGIE [A16S] showed a protein stability index of 3.05.
For AFVVYLETETLVTREMVTEILGIE [A16M], the protein stability index was 2.01.
For AFVVYLETETLVTREVVTEILGIE [A16V], the protein stability index was 3.75.
AFVVYLETETLVTREPVTEILGIE [A16P] gave a protein stability index of 3.89.
For AFVVYLETETLVTREYVTEILGIE [A16Y], the protein stability index was 2.47.
In the case of AFVVYLETETLVTRETVTEILGIE [A16T], the protein stability index is reported as 2.66.
AFVVYLETETLVTREFVTEILGIE [A16F] gave a protein stability index of 3.01.
Variant AFVVYLETETLVTRENVTEILGIE [A16N] has a protein stability index of 1.96.
AFVVYLETETLVTRDAVTEILGIE [E15D] showed a protein stability index of 3.69.
In the case of AFVVYLETETLVTRCAVTEILGIE [E15C], the protein stability index is reported as 1.97.
With AFVVYLETETLVTRMAVTEILGIE [E15M] the protein stability index was 3.51.
In the case of AFVVYLETETLVTRYAVTEILGIE [E15Y], the protein stability index is reported as 2.25.
For AFVVYLETETLVTRLAVTEILGIE [E15L], the protein stability index was 2.17.
For AFVVYLETETLVTRVAVTEILGIE [E15V], the protein stability index was 3.11.
For AFVVYLETETLVTRFAVTEILGIE [E15F], the protein stability index was 3.13.
With AFVVYLETETLVTRSAVTEILGIE [E15S] the protein stability index was 2.65.
For AFVVYLETETLVTRIAVTEILGIE [E15I], the protein stability index was 3.25.
AFVVYLETETLVTRHAVTEILGIE [E15H] showed a protein stability index of 1.85.
In the case of AFVVYLETETLVTREAMTEILGIE [V17M], the protein stability index is reported as 4.75.
Work on AFVVYLETETLVTREAHTEILGIE [V17H] yielded a protein stability index of 2.62.
AFVVYLETETLVTREAGTEILGIE [V17G] gave a protein stability index of 2.21.
AFVVYLETETLVTREATTEILGIE [V17T] gave a protein stability index of 3.01.
Work on AFVVYLETETLVTREAETEILGIE [V17E] yielded a protein stability index of 1.4.
For AFVVYLETETLVTREADTEILGIE [V17D], the protein stability index was 2.61.
AFVVYLETETLVTREAATEILGIE [V17A] gave a protein stability index of 2.01.
Work on AFVVYLETETLVTREAPTEILGIE [V17P] yielded a protein stability index of 3.55.
For AFVVYLETETLVTREAYTEILGIE [V17Y], the protein stability index was 3.6.
Variant AFVVYLETETLVTREAQTEILGIE [V17Q] has a protein stability index of 3.14.
Work on AFVVYLEGETLVTREAVTEILGIE [T8G] yielded a protein stability index of 2.1.
